# Assay results from the RNAGym collection of RNA variant scans (doi:10.1073/pnas.2313332121).
# B1: TPR t1 (parent)
# chain: GACCAAUCUGCCCUCAGAGCUCGAGAACAUCUUCGGAUGCAGAGGAGGCAGGCUUCGGUGGCGCGAUAGCGCCAACGUCCUCAACCUCCAAUGCAUCCCACCACAUGAUGAUGCCUGAAGAGCCUUGGUUUUUUG
# Variants of: B1
# Assay: polymerase ribozyme fitness, log enrichment relative to wild type (log ratio); higher = more active; in vitro selection for triplet polymerase activity
# Procedure, shortened: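 After PCR construction and transcription, each subunit's mutant library from a heterodimeric triplet polymerase ribozyme was annealed with a biotinylated primer, the partner subunit and triplets. Incubation was frozen, at −7 °C, and extended constructs were gel-excised, bound to streptavidin beads and amplified by RT-PCR, in one selection round done in triplicate. Fitness is the logarithm of a genotype's enrichment divided by that of the wild type, from inverse-variance-weighted replicate averages of Illumina-sequenced inputs and outputs. The base of the logarithm is 2, and genotypes needed ≥10 input reads and ≥1 read per output.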
row,Variant,polymerase ribozyme fitness (log ratio)
1,GACCAAUCUGCCCUCAGAGCUCGAGAACAUCUUCGGAUGAUGAGGAGGCCGGCUUCGGUGGCGCGAUAGCGCCAACGUCCUCAACCUCCAAUGCAUCCCACCACAUGAUGAUGCCUGAAGAGCCUUGGUUUUUUG [C40A A41U A50C],-1.94
2,GACCAAUCUGCCCUCAGAGCUCGAGAACAUCUUCGGAUGAAGUGGAGGCAGGCUUCGGUGGCGCGAUAGCGCCAACGUCCUCAACCUCUAAUGCAUCCCACUACACGAUGAUGCCUGAAGAGACUUGGUUUUUUG [C40A A43U C89U C102U U106C C123A],-6.44
3,GACCAAUCUGCCCUCAGAGCUCGAGAACAUCUUCGGAUGAAGAGGAGGAAGGUUUCGGUGGCGCGAUAGCGCCAACGUCCUCAACCUCCAAUGCAUCCCACCACAUGAUAAUGCCUGAAGAGCCUUGGUGUUUUG [C40A C49A C53U G110A U130G],-4.63
4,GACCAAUCUGCCCUCAGAGCUCGAGAACAUCUUCGGAUGAAGAGGAGGCUGGCUUCGGUGGCGCGAUAGCGCCAACGUCCUCAACCUCUAAUGCAUCCCACCACAUGAUGAUGCCUGAAGAGCCUUGGUUUUUUG [C40A A50U C89U],-1.95
5,GACCAAUCUGCCCUCAGAGCUCGAGAACAUCUUCGGAUGAAGAGGAGGCAGGCUUGGGUAGCGCGAUAGCGCCAACGUCCUCAACCUCCAAUGCAUCCCACCACAUGAUGAUGCCUGAAGAGCCUUGGUUUUUUG [C40A C56G G60A],-3.73
6,GACCAAUCUGCCCUCAGAGCUCGAGAACAUCUUCGGAUGAAGUCGAGGCAGGCUUCGGUGGCGCGAUAGCGCCAACGUCCUCAACCUCCAAUGCAUCCCACCACAUGAUUAUGUCUGAAGAGCCUUGGUUUUUUG [C40A A43U G44C G110U C114U],-5.04
7,GACCAAUCUGCCCUCAGAGCUCGAGAACAUCUUCGGAUGAAGAGGAGGCAGGCUUCGGUGGCGCGAUAGCGCCAACGUCCUCAACCUCGAAUGCAUCCCACCACAUGAUGAUGCCUGAAGAGCCUUGGUUUUUUG [C40A C89G],-2.81
8,GACCAAUCUGCCCUCAGAGCUCGAGAACAUCUUCGGAUGAAGAGGAGGCAGGCUUCGGUGGCGCGAUAGCGCCAACGUCCUCAACCUUCAAUGCAUCCCACCACAUGAUGAUGCCUGAAGAGCCUUGGUUUUUUG [C40A C88U],-0.447
9,GACCAAUCUGCCCUCAGAGCUCGAGAACAUCUUCGGAUGAAGAGGAGGCAGGCUUCGGUGGCGCGAUAGCGCCAACGUCCUCAACCUCCAGUGCAUCCUACCACAUGAUGUUGCCUGAAGAACCUUGGUUUUUUG [C40A A91G C99U A111U G122A],-6.79
10,GACCAAUCUGCCCUCAGAGCUCGAGAACAUCUUCGGAUGAAGAGGAGGCAGGCUUUGGUGGCGCGAUAGCGCCAACGUCCUCAACCUCCAAUGCAUCCCACCACAUGAUGAUGCCUGAUGAACCUUGGUUUUUUG [C40A C56U A119U G122A],-1.84
11,GACCAAUCUGCCCUCAGAGCUCGAGAACAUCUUCGGAUUCAGAGGAGGCAGGCUUCGGUGGCGCGAUAGCGCCAACGUCCUCAACCUCCAAUGCAUCCCACCACAAGAUGAUGCCUGAAGAGCCUUAGUUUUUUG [G39U U106A G127A],-2.14
12,GACCAAUCUGCCCUCAGAGCUCGAGAACAUCUUCGGAUGAAGAGGAGGCAGGCUUCGGUGGCGCGAUAGCGCUAACGUCCUCAACCUCCAAUGCAUCCCACCACAUGAUGAUGCCUGAAGAGCCGUGGUUUUUUG [C40A C73U U125G],-1.92
13,GACCAAUCUGCCCUCAGAGCUCGAGAACAUCUUCGGAUGAAGAGGAGGCAGGCUUCGGUGGCGCGAUAGCGCCAACGUCCUCAACCUCCAAUGCAUCCCACCACAUGAUGUUGCCUGAAGAGCCUUGGUUUUUUG [C40A A111U],-4.74
14,GACCAAUCUGCCCUCAGAGCUCGAGAACAUCUUCGGAUUCAGAGGAGGCAGGCUUCGGUGGCGCGAUAGCGCCAACGUCCUCAACCUCCAAUGCAUCCCACCACAUGAUGACGCCUGAAGAGCCUUAGUUUUUUG [G39U U112C G127A],-0.476
15,GACCAAUCUGCCCUCAGAGCUCGAGAACAUCUUCGGAUGAAGAGGAGGCAGGCUUCGGUGGCGCGAUAGCGCCAACGUCGUCAACCUCCAAUGCAUCCCACCACAUGAAGAUGCCUGAAGAGCCUUGGUUUUAUG [C40A C80G U109A U133A],-7.59
16,GACCAAUCUGCCCUCAGAGCUCGAGAACAUCUUCGGAUGAUGAGGAGGCCGGCUUCGGUGGAGCGAUAGCGCCAACGUCCUCAACCUCCAAUGCAUCCCACCACAUGAUGAUGCCUGAAGAGCCUUGGUUUUUUG [C40A A41U A50C C62A],-5.7
17,GACCAAUCUGCCCUCAGAGCUCGAGAACAUCUUCGGAUGAAGAGGAGGCAGGCUUCGGUGGCGCGAUAGCGCCAACGUGCUCAACCUCCAAUGCAUCCCACCACAUGAUGAUGCCUGAAGAGCCUUGGUUUUUUG [C40A C79G],-3.35
18,GACCAAUCUGCCCUCAGAGCUCGAGAACAUCUUCGGAUGAAGAGGAGGCAGGCUUCGGUGGCGCGAUAGCGCCAACGUCAUCAACCUCCAAUUCAUCCCAACACAUGAUGAUGCCUGAAGAGCCUUGGUUUUUUG [C40A C80A G93U C101A],-3.95
19,GACCAAUCUGCCCUCAGAGCUCGAGAACAUCUUCGGAUGAAGAGGAGGCAGGCUUCGGUGGCGCGAUAGCGCCAACGUCCUCAACCUCCAAUGCAUCCCACCACAUGGUGAUGCCUGAGGAUCCUUGGUUUUUUG [C40A A108G A119G G122U],-2.47
20,GACCAAUCUGCCCUCAGAGCUCGAGAACAUCUUCGGAUGAAGAGGAGGCAGGCUUGGGUGGCGCGAUAGCGCCAACGUCCUCAACCUCCAAUGCAUCCCACCACCGGAUGAUGCCUGAAGAGCCUUGGUUUUUUG [C40A C56G A105C U106G],-4.78
21,GACCAAUCUGCCCUCAGAGCUCGAGAACAUCUUCGGAUGAAGAGGAGGCAGGCUUCGGUGGCGUGAUAGCGCCAACGUCCUCAAACUCCAAUGCAUCCCACAACAUGAUGAGGCCUGAAGAGUCUUGGUUUUUUG [C40A C64U C85A C102A U112G C123U],-5.99

row,Variant,polymerase ribozyme fitness (log ratio)
1,GACCAAUCUGCCCUCAGAGCUCGAGAACAUCUUCGGAUGAAGAGGAGGCAGGCUUCGGUGGCGCGAUAGCGCCAACGUCCUCAGCCUCCAAUGCAUCCCACCAAAUGAUGAUGCCUGAACAGCCUUGGUUUUUUA [C40A A84G C104A G120C G135A],-4.9
2,GACCAAUCUGCCCUCAGAGCUCGAGAACAUCUUCGGAUGAAGAGGAGGCAGGCUUCGGUGGUGCGAUAGCGCCAACGUCCUCAACCUCCAUUCCAUCCCACCAUAUGAUGAUACCUGAAGAGCCUUGGUUUUUUG [C40A C62U A91U G93C C104U G113A],-2.62
3,GACCAAUCUGCCCUCAGAGCUCGAGAACAUCUUCGGAUGAUGAGGAGGCAGGCUUCGGUGGCGCGAUAGCGCCAACGUCCUCAACCUCCAAUGCAUCCCACCACAUGAUGAUGCCUGAAGAGCCUUGGUUUUUUG [C40A A41U],-2.43
4,GACCAAUCUGCCCUCAGAGCUCGAGAACAUCUUCGGAUGAAGAGGAGGGAGGCUCCGGUGGCGCGAUAGCGCCAACGUCCUCAACCUCCAAUGCCUCCCACCACAUGAUGAUGCCUGAAAAGCCUUGGUUUUUUG [C40A C49G U55C A95C G120A],-2.38
5,GACCAAUCUGCCCUCAGAGCUCGAGAACAUCUUCGGAUGAAGAGGAGGCAGGCUUCGGUGGCGCGAUAGCGUCAACCUCCUCAACCUCCAAUGCAUCCCACCACAUGAUUAUGCCUGAAGAGCCUUGGUUUUUUG [C40A C72U G77C G110U],-3.75
6,GACCAAUCUGCCCUCAGAGCUCGAGAACAUCUUCGGAUGAAGAGGAGGCAGGCUUCGGUGGCGCGUUAGCGGCAACGUCCUCAACCUCCAAUGUAUCCCACCACAUGAUGAUGCCUGAAGAGCCUUGGUUUUUUG [C40A A66U C72G C94U],-3.54
7,GACCAAUCUGCCCUCAGAGCUCGAGAACAUCUUCGGAUGAGGAGGAGGCAGGCUUCGGUGGCGCGAUAGUGCCAACGUCCUCAACCUCCAAUGCAUCCCACCACAUGAUGAUGCCUGAAGAGCCUUGGUUUUUUG [C40A A41G C70U],-1.7
8,GACCAAUCUGCCCUCAGAGCUCGAGAACAUCUUCGGAUGAAGAGGAGGCAGGCUUCGGUGGCGCGAUAGUGCCAACGUCCUCAACCUCCAAUGCAUCCCACCACAUGAUGAUGCCUGAAGAGCCUUGGUUUUUUG [C40A C70U],-0.716
9,GACCAAUCUGCCCUCAGAGCUCGAGAACAUCUUCGGAUGAAGAGGAGGCAGGCUUCGGUGGCGCGAUAGAGCCAACGUCCUCAACCUCCAAUUCAUCCCACCACAUGAUGAUGCCUGAAGAGCCUUGGUUUUUUG [C40A C70A G93U],-1.59
10,GACCAAUCUGCCCUCAGAGCUCGAGAACAUCUUCGGAUGAAGAGGAGGCAGGCUUAGGUGGCGCGAUAGCGCCAACGUCCUCAACCUCCAAUGCAUUCCACCACAUGAUGAUGCCUGAAGAGCCUUGGUUUUUUG [C40A C56A C97U],-1.12
11,GACCAAUCUGCCCUCAGAGCUCGAGAACAUCUUCGGAUGAAGAGGUGGCAGGCUUCGGUGGCGCGAUAUCGCCAACGUCUUCAACCUCCAAUGCAUCCCACCACAUGAUAAGGCCUGAAGAGCCUUGGUUUUUUG [C40A A46U G69U C80U G110A U112G],-7.41
12,GACCAAUCUGCCCUCAGAGCUCGAGAACAUCUUCGGAUGAAGAGGUGGCAGGCUUCGGUGGCGCGAUAGCGCCAACGUCCUCAACCUCCAAUGCAUCCCACCACAUGAUGAUGCCUGAAGAGCCUUGGUUUUUUG [C40A A46U],-3.32
13,GACCAAUCUGCCCUCAGAGCUCGAGAACAUCUUCGGAUGAAGAGGAGGCAGGCUUCGGUGGCGCGAUAGUGCCAACGUCCUCAACCUCCAAUGCAUCCCACCACAUGAUGAUACCUGAAGAGCCUUGGUUUUUUG [C40A C70U G113A],-2.79
14,GACCAAUCUGCCCUCAGAGCUCGAGAACAUCUUCGGAUGAAGAGGAGGAAGGCUUCGGUGGCGCGAUAGCGCCAACGUCCUCAACGUCCAAUGCAUCCCACCACAUGAUGAUGCCUGAAGAGCCUUGGUUUUUUG [C40A C49A C86G],-3.35
15,GACCAAUCUGCCCUCAGAGCUCGAGAACAUCUUCGGAUGAAGAGGAGGCUGGCUUCGGUGGCGCGAUAGCGCCAACGUCCUCAACCUCCAAUGCAUCCCACCACAUGAUGAUGCCUGAAGAGCCUUGGUUUUUUG [C40A A50U],-1.94
16,GACCAAUCUGCCCUCAGAGCUCGAGAACAUCUUCGGAUGAAGUGGAGGCAGGCUUCGGUGGCUCGAUAGCGCCAACGUCCUCAACCUCUAAUGCAUCCCACUACACGAUGAUGCCUGAAGAGACUUGGUUUUUUG [C40A A43U G63U C89U C102U U106C C123A],-7.19
17,GACCAAUCUGCCCUCAGAGCUCGAGAACAUCUUCGGAUGACGAGGAGGCAGGCUUCGGUGGCGCGAUAGCGCCAACGUCCUCAACCUCCAAUGCAUCCCACCACAUGAUGAUGCAUGAAGAGCCUUGGUUUUUUG [C40A A41C C115A],-2.44
18,GACCAAUCUGCCCUCAGAGCUCGAGAACAUCUUCGGAUGAGAGGGAGGCAGGCUUCGGUGGCGCGAUAGCGCCAACGUCCUCAACCUCCAAUGCAUCCCACCACAUGAUGAUGCCUGAAGAUCCUUGGUUUUUUG [C40A A41G G42A A43G G122U],-3.41
19,GACCAAUCUGCCCUCAGAGCUCGAGAACAUCUUCGGAUGAAGAGGAGGCAGGCUUCGGUGGCGCGCUAGCGCCAACAUCCUCAACCUCCAAUGCAUCCCACCACAUGAUGAUGCCUGAAGAGCCUUGGUUUUUUG [C40A A66C G77A],-3.74
20,GACCAAUCUGCCCUCAGAGCUCGAGAACAUCUUCGGAUGAAGGGGAGGCAGGUUUCGAUGGCGCGAUAGCGCCAACGUCCUCAACCUCCAAUGCAUCCCACCACAUGAUGAUGCCUGAAGAGCCUUGGUUUUUUG [C40A A43G C53U G58A],-4.13
21,GACCAAUCUGCCCUCAGAGCUCGAGAACAUCUUCGGAUGAAGAGGAGGCAGGCUUGGGUGGCGCGAUAGCGCCAACGUCCUCAACCGCCAAUGCUUCCCAACACAUGAUGAUGCCUGAAGAGCAUUGGUUUUCUG [C40A C56G U87G A95U C101A C124A U133C],-5.07
